According to a protein production outcome set (Wang et al. 2014):

Experiment: label from the status in PepcDB records
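Also: failed if final PepcDB status was selected cloned or expressed and not failed if soluble or beyond.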

Sequence: MIKRDFRKKLTMCLASVMALNLGISVSVKADEGLKNEIKNNDITKDISIYPTPKDMTVGNSEFTLEDSVNIVGGDLADTYAFELLKNMLTEFGIKINESEIEGATTIYIGESDDNIEEMENTLEEMNVDTSSISKDEGYVLVTDENIEGNKIVIRGNDETGTFYGVKSLKQLIKKEDNKVILDEVVIKDEPSFKMRAVVEGFYGTPWSQEERLDQIKMYGEYKMNAYIYAPKSDPYHREKWREPYPASELDRMKELIKTANENKVDFVFAISPGLDIKFEGEEGEADFKALINKAETLYDMGVRSFAILWDDIENRSGVQQAEVLNRFNKEFIKNKEGVKPLITVPVEYWGSSMFNGEEVKTYTKEFAETLDKDIEVMWTGNDVIPPNGVSLEDAKKVSNVYNRKMMLWWNYPVNDYKEDKMALGPIYDLDRNLDEDVSGFIVNPMRFSDASKISTLTGADYGWNSISYEAEKSWDKAIEIIAGEMKEEFKIFANHSTRLDTGRPDSPEIKNTIDSLWEKWEAGSDISLELSNLQNEFSKMVQVPNKLRSNLENKALLNQLDSHLSKFEIYGNAGLKSIEILQDILNKDMSEFWSDNFEGIKLLRNLDGIKATIANNVVDPFIRKVHEVGNEYFNKETTVLEEKEYSYTSIGNIVDHKYSEWFISEETHVPNYMFDDKDNTGFWSAAPVQKDEFIGFDLGEAEEIKDIYLLMGRNNNDTDVLTNGVIEYSLDGENWTELEVNKGERELLVETGIKARFIRYRALSDSENKLYVRDFKVNTGKSKEKLIGDVEVKDSNINKSSEGENEIISASNINKISFEEGDSIGLAINDVKNVIGFEVLGDVESNKFVLESSFDNIEWEEVCNGTSFKDETPLVGKFFRIRAKEKTEANINEIKISLEGYSKGIVSTNRRISSNANIHPDFVADNDYGTSFVCSDTIKKGDFVQLDLGVEKKIRDISLVQGPGGDYMDGDIEYSLDGENWIKLGVVEGTDTLIKDLDVKARYVRVISTGYKDRWSRVREFTVNKTVKEFETKATSEGTYIDRSENIRDNNLNSAYIPEGEIKSGDYLLRRIFNERLVSKVTVAQSTDNLSGAKVIGKTVNGETLDLGVLDKGLNELVLKNPRQLVSVKLVWEKDAGKVEIFEVKPTFVSLDYIIEDIKNEIQRGKDVLVEHKDKENEERTQLEEALKNIENLLNNKASDDEIVRAYEDLTNKINNFIDSEPNKEEENKPSKPEGGENGSEGEGDKEDSGDKNENEDNKDENGNLPNTGSPLGAGELMLVGAALATLGGVTIKKKK
- protein production: failed

Sequence: MMRVLHISDTHFGTEREPVVHALHALADTLRPDLVVLGGDITQRARRGQFAAARRFIQALQRPVLAVPGNHDIPLFNLAARLFDPYGNYRRALGAVLEPVYEDDRLLAIGVNSTRAARRKNGEVSRTQAQRVAQRLRDARPGQLRVVALHHPVHAMVESDQRNLLIGREFAVPAWVDAGVDLILGGHIHLPYVAPLHGKAGEAGRRAWTVQAGTAVSRRVRGRVPNSVNLIDYAAQADSPACTVQRWDFQTDSGAFVLFGQQVLALNRARG
- protein production: failed

Sequence: MGPAVKKASKGILSDVLKCLTNNIKHMREFTLAVVDKMVAGLSDFVDATHLLKPASNRSD
- protein production: failed

Sequence: MSASSLFNLPLIRLRSLALSSSFSSFRFAHRPLSSISPRKLPNFRAFSGTAMTDTKDAGMDAVQRRLMFEDECILVDETDRVVGHDSKYNCHLMENIEAKNLLHRAFSVFLFNSKYELLLQQRSNTKVTFPLVWTNTCCSHPLYRESELIQDNALGVRNAAQRKLLDELGIVAEDVPVDEFTPLGRMLYKAPSDGKWGEHELDYLLFIVRDVKVQPNPDEVAEIKYVSREELKELVKKADAGEEGLKLSPWFRLVVDNFLMKWWDHVEKGTLVEAIDMKTIHKL
- protein production: failed

Sequence: MVGLLVEDTIDDQGWNRKAYEGLLNIHSNLDVDVVLEEGVNSEQKAHRRIKELVDGGVNLIFGHGHAFAEYFSTIHNQYPDVHFVSFNGEVKGENITSLHFEGYAMGYFGGMVAASMSETHKVGVIAAFPWQPEVEGFVDGAKYMNESEAFVRYVGEWTDADKALELFQELQKEQVDVFYPAGDGYHVPVVEAIKDQGDFAIGYVGDQADLGGSTILTSTVQHVDDLYVLVAKRFQEGKLESGNLYYDFQDGVVSLGEFSSVVPDEVREQITDAISTYIQTGQFPHEEER
- protein production: not failed

Sequence: MNDHTAAIAAHFDQLAPNLDRWRRRNRTYYRDLEKLHRFWIPTGSRVLQVGSGLGDLLATVEPSFGIGIDVSPQAVAIAQQRHPQLQFHCLAAEELTPEAIGNPEPFDAIILTGVLSYLTDIQVVLEQLQAFCHPRTRLILGFHNFLWQPLLTAAEKVGQRSPQPPESWLGMQDVLNLLTLTGYEPIKQGRRFLLPRQIPLLTGWINRWISPLPVIEHLALTNYVIARPLAQPRSQPTVSVIVPARNEAGNIAAAVERLPELGAETELIFVEGHSRDQTWETIEQTVAEYQGPLKLLACRQTGKGKADAVRLGFDKASGDILMILDADLTVQPEDLGHFYRAIASGRGEFINGSRLVYPRSRLAMPGLNTLANRTFALIFSFLLGQPLKDTLCGTKVLWKTDYDRVAAGRKYFGDFDPFGDFDLLFGAAKLGLEIVEVPVRYQERSYGSSNIAHVREGLILARMCLYAAGKLKFPH
- protein production: failed

Sequence: MSLTMVSEVQPVSPASLDAPLENAVEIIETVISSLHQGDAPLVGQTDSGKIWMFRYGSAEVFVQLSGHTEEDFLTIWSPVLPLPVADELALYRKLLTLNWLTTFEAHFAIAEEQVQVVASRTLGGITAGEISRLITIVATLADDYDDALRAEFKGEGHHHHHH
- protein production: not failed

Sequence: MSLRQDILLNNNWNFRFSHQVQGDTRRVDLPHTWNAQDALAGKIDYKRGIGNYEKALYIRPEWKGKRLFLRFDGVNSIADVFINRKHIGEHRGGYGAFIFEITDLVKYGEKNSVLVRANNGEQLDIMPLVGDFNFYGGIYRDVHLLITDETCISPLDYASPGVYLVQEVVSPQEAKVCAKVNLSNRAADGTAELQVLVTDGTKVICKESRNVSLKQGADILEQLPLLIQKPRLWNGCEDPFMYQVSISLHKDGKQIDSVTQPLGLRYYHTDPDKGFFLNGKHLPLHGVCRHQDRAEVGNALRPQHHEEDVALMREMGVNAIRLAHYPQATYMYDLMDKHGIVTWAEIPFVGPGGYADKGFVDQASFRENGKQQLIELIRQHYNHPSICFWGLFNELKEVGDNPVEYVKELNALAKQEDPTRPTTSASNQDGNLNFITENIAWNRYDGWYGSTPKTLATFLDRTHKKHPELRIGISEYGAGASIYHQQDSLKQPSASGWWHPENWQTYYHMENWKIIAERPFVWGTFVWNMFDFGAAHRTEGDRPGINDKGLVTFDRKVRKDAFYFYKANWNKQEPMIYLAEKRCRLRYQPEQTFMAFTTAPEAELFVNGVSCGKQKADTYSTVVWKNVKLTSGENIIRVTTPGKKPLTDEVTVEYKEDREGHHHHHH
- protein production: not failed

Sequence: MNWAKFRETGSPEDTDMSSTPISSDTTAVSKVIDPNYVLMVADFFKAISPDESCNDFTSFDSFSVLFQNNTRALSIARGRVSCSVTVTPGISNFFKGLHGGAVASIAERVAMACVKTVVSEDKHLFIGELSMSYLSSAPISSELLVEGTVVRTGRNLSVVTVEFKIKETMKVTYLSRATFYHSPISKL
- protein production: failed

Sequence: MKKYSTIPTPCYVLESERLEKNAKILEIVRQQSGAKVLLALKGYAFWREFGILRQKLNGCCASGLYEAKLAFEEFGGRESHKEICVYSPAFKEAEMSAILPLATSIIFNSFYQYATYKDRILDKNKQLENLGLSPIKMGLRINPLYSEVTPAIYNPCSKVSRLGITPSGFEKGVKEHGLEGVSGLHFHTHCEQNADALCRTLEHVEKHFRPYLENMAWVNFGGGHHITKSDYDVNLLIQTIKDFKERYHNIEVILEPGEAIGWQCGFLIASVIDIVQNDQEIAILDASFSAHMPDCLEMPYRPSIFKVSVENDEELIEVEKGENQGAFSYFLGGPTCLAGDFMGSFSFETPLKRGDKIVFQDMLHYTIVKNNSFNGVPLPSLARLDQQGFKILKNFSYEDYKNRN
- protein production: failed

Sequence: MGTVSKALTLLTYFNHGRLEIGLSDLTRLSGMNKATVYRLMSELQEAGFVEQVEGARSYRLGPQVLRLAALREASVPILSASRRVLRELSEDTGETTHLSLLQGEQLASLSHAYSSRNATKVMMEDAEVLTFHGTASGLAVLAYSEPSFVDAVLAAPLTARTPQTQTDPAAIRAEIAEVRRTGLAQSIGGFEAEVHSHAVPIFGPDRAVLGALAVAAPTSRMTPDQKRTIPPALRAAGLSLTERIGGACPPEFPTDIAA
- protein production: not failed

Sequence: EIKLEDVLIKRRSVREYCSSPLTLRELSHILFAAYGVTDERGFKTVPSAGATYPLEIYVNVRDVVGVEEGVYKYIPERHSIVRILDEEVGHELALAALKQMFIAIAPIVLIIAANYERTTRVYGDRGFRYVHMEVGHVAQNVYLMATSLGLGTVSVGAFYDNEIREILKIKEYPLLLMPVG
- protein production: failed

Sequence: MVKNGIILGKRYEVISKIGAGGMADVYKGKDHMLNRYVAIKVLKKEFKEDENFVRKFRSEAQAAAGLIHPNVVNVYDVGEDRGLYYMVMELVEGITLKEYIDKKGRLSHKETISIAIQMCTGIGVAHAANIIHRDIKPQNIIISKDGKVKVTDFGIAKATTSNTISSNAMGSVHYTSPEQARGGFSDQKSDIYSIGITLYEMVTGQVPFDGDSTVSVAIKHLQEEITPPSEIVPDIPYSLEQIILKCTQKNGERRYRNTGELIQDLKRSLVDPDGDFVVIPPLGNADTVIITDEELDDIRSSYDDEEEFDEYDEDEYGDEEEFDEYDEDDDEYDEYDDDEEYGGKGKKGKSSDDVNPRMKKVMKILTIVVAIIIVFILVFAIGKAAGIFKGGFGIDTVDTDEKTKVKVPNVVGMTEDEAKKTLNKKGLGFKVVAREESKKYEEGTVSKQKTEAGKRVAKNTTIQVVVSSGLVGDEITVPNVSNMSESEAQKALEDAGFEKITSDFAYSDSVAEGDVIGTTPAANARATKDTEIVMKVSKGSEKKTVPNVVGQQDGDAQNAITAAGLTVGTVTYEYYDDVPKGQVVSQTVAGGKKVAPGTSVGLTISSGPKPPEKVSVPPVTGISIEEARALLDGVGLKADIKYDSETVGTVGQVIKCNPGVGTQVDEGSTVTLIVISKSSQPDGGETESTQ
- protein production: failed

Sequence: MTASPIVVFDLDGTLIDTAPDLINALNFILVREGMPAVPMAVARNMIGQGARRLLERGLELDGRVIAQDDVNRLTVDFIDYYAAHIADESRPFEGLEATLDELSESGYRFAVCTNKLEWLSKLLLDRLGLSPRFAAICGADTFGVAKPDPAILRETVAKAGGDLSAAIMVGDAGPDVGVARRAGVPVIGVEFGYTEVPIAELQPDLLVGHMRELPNAVGRLLPR
- protein production: not failed

Sequence: MLTHKTCQARKKMQVSFVIRDAEEKQHRNGVNALQLDANNGKLYSAGRDAIIRVWNTRTDSSEKYIQSMEHHNDWVNDIVLCCNGRNLISASCDTTVKVWNAQKGFCMSTLRTHRDYVQALAYAKDREQVASAGLDKAIFLWDVNTLTALTASNNTVTTSSLTGSKDSIYSLAMNPSGTVIVSGSTENILRIWDPRTCMRRMKLRGHTENVRCLVVSPDGNQVVSGSSDGTIKVWNLGQQRCVQTIHVHKEGVWSLLMSENFQYIISGSRDRNIIVTEMRNPSNKTLVCEEQAPVLSLGYNIDKTGVWATTWNSDIRCWKLPMYDRCTLNSSGGMDAQWTQGGTEVACIKGGAAIKECAVLNDKRYIITKDSQDQVVVYDVLRVVKKEQLGAVDFEAEVKKRNKQVYIPNWFTVDLKTGMPTIVLGQEEVDCFSAWVSIEAGLPECVDPTTEIKINYGKLLLEALLEYWTPPHSIPPNEMEPDMHGNGYFQVPKHTPVIFSEVGGRTVCRLLVRDAAGDSESTLLHETAPQWVTDVVIEKNIPKFLKIPFFLQPHPQMTKPERTKKDRLVANEFIQCRKVCEHVLEKVLNAETTPSGGNANNSLQNSQSDANSEGSQLPAEERIELWCNDVVVDPNMDLRTVRHFIWKQSTDLTFQYKTKQNFNYDGK
- protein production: failed

Sequence: PEKPAKTQKTSLDEALQWRDSLDKLLQNNYGLASFKSFLKSEFSEENLEFWIACEDYKKIKSPAKMAEKAKQIYEEFIQTEAPKEVNIDHFTKDITMKNLVEPSLSSFDMAQKRIHALMEKDSLPRFVRSEFYQELI
- protein production: not failed
